Values of other authors in article PMC3567247.
Read-outs that look alike come from different tables or passages of the source.

Columns and labels:
Ribonuclease Inhibitor = Ribonuclease Inhibitor (UniProt P13489)
[1] = molecular target: Ribonuclease Inhibitor (Sus scrofa) (UniProt P10775)
BPTI (Bos taurus) = BPTI (Bos taurus) (UniProt P00974)
BCMA (Homo sapiens) [2] = molecular target: BCMA (Homo sapiens) (UniProt Q02223); test: surface plasmon resonance
BR3 (Homo sapiens) [3] = molecular target: BR3 (Homo sapiens) (UniProt Q96RJ3); test: surface plasmon resonance
CD40L (Homo sapiens) = CD40L (Homo sapiens) (UniProt P29965)
[4] = molecular target: Barstar (Bacillus amyloliquefaciens) (UniProt P11540)
CD40 (Homo sapiens) = CD40 (Homo sapiens) (UniProt P25942)
BR3 (Homo sapiens) [5] = molecular target: BR3 (Homo sapiens) (UniProt Q96RJ3)
TACI (Homo sapiens) = TACI (Homo sapiens) (UniProt O14836)
BCMA (Homo sapiens) [6] = molecular target: BCMA (Homo sapiens) (UniProt Q02223)
Im9 (Escherichia coli) = Im9 (Escherichia coli) (UniProt P13479)
Im9 (Escherichia coli), sequence (P13479 whole entry): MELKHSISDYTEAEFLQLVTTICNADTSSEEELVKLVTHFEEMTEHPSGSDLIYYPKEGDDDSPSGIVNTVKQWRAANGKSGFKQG

BCMA (Homo sapiens), sequence (Q02223 whole entry): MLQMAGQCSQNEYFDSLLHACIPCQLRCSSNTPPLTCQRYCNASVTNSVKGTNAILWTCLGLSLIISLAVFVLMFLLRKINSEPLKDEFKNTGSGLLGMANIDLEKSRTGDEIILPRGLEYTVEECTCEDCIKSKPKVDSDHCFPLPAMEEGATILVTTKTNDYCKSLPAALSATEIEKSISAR
APRIL, sequence (O75888 105-250): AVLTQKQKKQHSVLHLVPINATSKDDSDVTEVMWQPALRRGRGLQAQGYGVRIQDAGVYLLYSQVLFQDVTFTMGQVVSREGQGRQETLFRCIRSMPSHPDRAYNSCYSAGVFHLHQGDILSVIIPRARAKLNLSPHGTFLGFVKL
BR3 (Homo sapiens), sequence (Q96RJ3 whole entry): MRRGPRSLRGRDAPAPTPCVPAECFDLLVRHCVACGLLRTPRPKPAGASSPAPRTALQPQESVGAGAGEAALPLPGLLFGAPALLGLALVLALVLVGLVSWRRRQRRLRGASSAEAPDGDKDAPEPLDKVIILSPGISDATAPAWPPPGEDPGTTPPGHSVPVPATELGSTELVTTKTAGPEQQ
Ribonuclease A, sequence (P61823 27-150): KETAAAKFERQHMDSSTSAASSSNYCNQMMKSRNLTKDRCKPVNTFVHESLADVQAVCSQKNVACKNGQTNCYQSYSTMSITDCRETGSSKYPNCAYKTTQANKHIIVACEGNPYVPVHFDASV
CD40 (Homo sapiens), sequence (P25942 21-277): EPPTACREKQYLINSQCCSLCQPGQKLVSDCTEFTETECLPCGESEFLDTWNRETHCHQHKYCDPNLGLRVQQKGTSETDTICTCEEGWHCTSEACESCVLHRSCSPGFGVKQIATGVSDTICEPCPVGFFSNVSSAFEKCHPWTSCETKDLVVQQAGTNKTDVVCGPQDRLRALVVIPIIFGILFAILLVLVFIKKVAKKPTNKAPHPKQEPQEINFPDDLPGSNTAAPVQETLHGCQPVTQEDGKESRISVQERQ
CD40, sequence (P25942 21-277): as above
Barstar (Bacillus amyloliquefaciens), sequence (P11540 2-90): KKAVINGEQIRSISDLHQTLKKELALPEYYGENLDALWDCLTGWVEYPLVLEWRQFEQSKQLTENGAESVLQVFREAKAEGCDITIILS
Ribonuclease Inhibitor, sequence (P13489 2-461): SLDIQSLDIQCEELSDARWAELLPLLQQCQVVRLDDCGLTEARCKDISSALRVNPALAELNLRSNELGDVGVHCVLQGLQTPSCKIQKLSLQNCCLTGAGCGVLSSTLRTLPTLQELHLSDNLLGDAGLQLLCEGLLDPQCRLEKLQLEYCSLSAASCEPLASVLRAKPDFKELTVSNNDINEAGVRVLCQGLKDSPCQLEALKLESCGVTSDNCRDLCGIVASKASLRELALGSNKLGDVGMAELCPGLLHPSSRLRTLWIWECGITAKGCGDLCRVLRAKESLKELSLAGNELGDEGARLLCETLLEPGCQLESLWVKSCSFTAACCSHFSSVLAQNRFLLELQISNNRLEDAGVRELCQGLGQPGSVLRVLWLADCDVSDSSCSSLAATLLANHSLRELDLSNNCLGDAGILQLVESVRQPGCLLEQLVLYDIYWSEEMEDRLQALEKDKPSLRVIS
Colicin E9 nuclease, sequence (P09883 449-582): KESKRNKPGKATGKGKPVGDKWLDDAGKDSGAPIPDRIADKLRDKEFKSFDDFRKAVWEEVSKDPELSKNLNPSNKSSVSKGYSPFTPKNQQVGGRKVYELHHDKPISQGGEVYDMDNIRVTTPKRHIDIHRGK
TACI (Homo sapiens), sequence (O14836 whole entry): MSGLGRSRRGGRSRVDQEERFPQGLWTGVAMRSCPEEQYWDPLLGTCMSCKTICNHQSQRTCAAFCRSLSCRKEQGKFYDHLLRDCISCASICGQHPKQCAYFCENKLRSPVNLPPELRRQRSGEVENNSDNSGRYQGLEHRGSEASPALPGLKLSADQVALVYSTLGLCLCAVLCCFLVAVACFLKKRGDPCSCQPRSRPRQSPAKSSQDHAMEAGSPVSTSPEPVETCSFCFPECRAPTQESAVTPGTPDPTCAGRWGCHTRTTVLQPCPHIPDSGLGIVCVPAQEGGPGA
CD40L, sequence (P29965 113-261): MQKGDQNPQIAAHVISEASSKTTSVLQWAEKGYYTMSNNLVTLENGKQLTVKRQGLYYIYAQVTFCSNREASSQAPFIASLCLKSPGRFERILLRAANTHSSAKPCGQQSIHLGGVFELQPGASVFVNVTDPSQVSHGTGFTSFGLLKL
CD40L (Homo sapiens), sequence (P29965 113-261): as above
Barnase, sequence (P00648 48-157): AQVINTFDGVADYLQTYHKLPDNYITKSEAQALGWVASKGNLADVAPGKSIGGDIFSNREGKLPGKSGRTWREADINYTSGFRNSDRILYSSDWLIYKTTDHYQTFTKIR
Ribonuclease Inhibitor (Sus scrofa), sequence (P10775 whole entry): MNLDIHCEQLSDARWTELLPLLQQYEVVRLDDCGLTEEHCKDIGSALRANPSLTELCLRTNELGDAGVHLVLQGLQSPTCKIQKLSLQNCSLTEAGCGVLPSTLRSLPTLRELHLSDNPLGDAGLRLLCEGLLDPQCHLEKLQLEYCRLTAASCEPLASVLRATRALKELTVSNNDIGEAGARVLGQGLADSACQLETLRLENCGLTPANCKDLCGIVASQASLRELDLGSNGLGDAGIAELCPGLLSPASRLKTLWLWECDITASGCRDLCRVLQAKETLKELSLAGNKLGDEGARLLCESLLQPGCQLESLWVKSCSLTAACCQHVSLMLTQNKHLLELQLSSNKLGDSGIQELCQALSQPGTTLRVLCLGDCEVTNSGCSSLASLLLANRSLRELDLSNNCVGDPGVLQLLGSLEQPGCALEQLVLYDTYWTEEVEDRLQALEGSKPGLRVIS

Ribonuclease A (from UniProt P61823)
Kd (Ribonuclease Inhibitor): 0.059 pM
Kd [1]: 0.059 pM

trypsinogen (from UniProt P00760)
Kd (BPTI (Bos taurus)): 0.06 pM

APRIL (from UniProt O75888)
Kd (BCMA (Homo sapiens) [2]): 15 nM
Kd (BR3 (Homo sapiens) [3]): > 3000 nM

CD40 (from UniProt P25942)
Kd (CD40L (Homo sapiens)): 13000 nM

Barnase (from UniProt P00648)
Kd [4]: 0.0002 nM

CD40L (from UniProt P29965)
Kd (CD40 (Homo sapiens)): 13000 nM

BAFF (from UniProt Q9Y275)
Kd (BR3 (Homo sapiens) [5]): 15 nM
Kd (TACI (Homo sapiens)): 13 nM
Kd (BCMA (Homo sapiens) [6]): 1500 nM

Colicin E9 nuclease (from UniProt P09883)
Kd (Im9 (Escherichia coli)): 0.024 pM
